One molecule from paper PMC3236198 can be followed below.

For the data set, the target named is ΔC SSB (Escherichia coli, UniProt P0AGE0). Kind of data set: EMSA; additional complexes at higher SSB:DNA ratios; EMSA: 20 mM Tris-HCl pH 8.0, 50 mM NaCl, 5% glycerol, 50 µg/ml BSA, 4 °C, 30 min, 1 pmol DNA with 0.2, 2 or 10 pmol SSB in 15 µl; fluorescence: Buffer A (composition not given in the material) with ~50 or ~200 mM NaCl. Particulars: protein: recombinant; chain copies: 4; label: 5'-32P.
ΔC SSB, sequence (P0AGE0 1-113, tags or fused parts left off): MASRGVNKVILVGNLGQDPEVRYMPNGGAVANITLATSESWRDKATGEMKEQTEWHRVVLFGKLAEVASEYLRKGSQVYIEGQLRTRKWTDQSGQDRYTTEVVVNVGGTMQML

B1: 79mer ssDNA (ssDNA)
DNA: GCACTAGTGCGGATAGCCCCGTGTTGTTGTCTGACCCCCGACCCCGACGGCAATGCGGGGCAATCCCCTGGAGGCCTGC
On to B1, for which the binding result is reported as “binds”.
